# Test results as given in US20110293610A1 (published 2011).
# Where a chain is given by its changes, count along the chain named.
# T1: TNF-beta (human, UniProt P01374 35-205)
# T1 construct: also called TNFβ; Tumour Necrosis Factor-beta
# T1 sequence (looked up): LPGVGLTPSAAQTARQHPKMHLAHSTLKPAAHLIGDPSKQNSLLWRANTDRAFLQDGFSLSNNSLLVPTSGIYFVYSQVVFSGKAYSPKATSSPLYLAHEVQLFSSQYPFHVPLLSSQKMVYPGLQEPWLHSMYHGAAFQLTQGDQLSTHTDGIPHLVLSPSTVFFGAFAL
# B1: I001C09 (scFv)
# scFv: GVQLVQSGPEVKKPGASVKVSCTASGYTFTSYGVSWVRQAPGQGLEWIGWISAHNGQTKYAEKFQGRVTMTRNTSISTAYMELSSLRSEDTAVYYCARDGSYDILTGYYIDNYMDVWGKGTMVTVSSGGGGSGGGGSGGGGSSELTQDPAVSVALGQTVRITCQGDSLRSYYTNWFQQKPGQAPLLVVYAKNKRPSGIPDRFSGSSSGNTASLTITGAQAEDEADYYCHSRDSSGNHVLFGGGTKLTVLG
# B2: I018D07 (scFv)
# scFv: B1 scFv with K19I
# B3: I018C10 (scFv)
# scFv: B1 scFv with A92V
# B4: I031G08 (scFv)
# scFv: QVQLVQSGAEVKKPGSSVKVSCRASGGSFIDDSINWLRQAPGQGLEWVGGTIPLANRANYAQKFRDRATITADELTATVFLELTSLRSDDTALYYCARSSPPKWYDALTGHSSYHSAMDVWGRGTLVTVSSGGGGSGGGGSGGGGSAQSVLTQPPSASGTPGQRVTISCSGTNSNIGGNTVNWYQQLPGTAPRLLIYSNNQRPSGVPDRFSGSKSGTSASLAISGLQSEDEADYYCAARDDRLNAHVVFGGGTKVTVLG
# B5: I050A12 (scFv)
# scFv: EVQLVQSGAEVKKPGSSVKVSCKASGDTFSHYAINWVRQAPGQGLEWMGGIIPTFNAVKYAQKFQGRATITADGSTSTAYMELNSLRSEDTAVYYCATAPYDLLTHYFHYFDYWGQGTMVTVSSGGGGSGGGGSGGGGSALSSELTQDPAVSVTLGQTVRITCQGDSLRSYYPSWYQQKPGQAPVLVIYPKNIRPSGIPDRFSGSSSGNTASLTITGAQAEDEADYYCNSRASSGNHYVFATGTKLTVLG
# B6: I021B05 (scFv)
# scFv: QVQQSGADVKKPGGSLRLSCAASGFTFSSYSMNWVRQAPGKGLEWVSSISSSSSYIYYADSVKGRFTISRDNAKNSLYLQMNSLRAEDTAVYYCAREGGNYDILTGYYIGNGAFDIWGRGTMVTVSSGGGGSGGGGSGGGGSQSVLTQPASVSGSPGQSITISCTGTSSDVGGYNYVSWYQQHPGKAPKLMIYEGSKRPSGVSNRFSGSKSGNTASLTISGLQAEDEADYYCSSYTTRSTRVFGGGTKLTVLG
# B7: I031G10 (scFv)
# scFv: QVQLVQSGAEVKKPGSSVKVSCRVSGGSFTDDSINWLRQAPGQGLEWVGGTIPLANRANYAQKFRDRVTITADELTATVFLELTSLRSDDTALYYCARSSPPKWYDALTGDSSYHSAMDVWGRGTLVTVSSGGGGSGGGGSGGGGSAQSVVTQPPSVSAAPGQKVTISCSGSTSNIGRNYVSWYQQLPGTATKLLIYDNNKRPSGIPDRFSGSKSGTSATLGITGLQTGDEADYYCGTWDSSLRIYVFGTGTKVTVLG
# B8: I031C07 (scFv)
# scFv: EVQLVQSGAEVKKPGSSVKVSCRASGGSFIDGSINWLRQAPGQGLEWVGGTIPLANRANYAQKFRDRVTITADELTAIVFLELTSLRSDDTALYYCARSSPPRWYDALTGDSSYHSAMDVWGQGTMVTVSSGGGGSGGGGSGGGGSAQSALTQPPSASGSPGQSVTISCSGTSSDIGDSNSVSWYQQHPGKAPKLLIYEVTKRPSGVPDRFAGSRSDNTASLTVSGLQTEDEADYYCSSSAARNHLVFGGGTKVTVLG
# B9: I016H07 (scFv)
# scFv: GVQLVQSGAEVKKPGASVKVSCKASGYTFTHYAINWLRQAPGQRPEWMGTINTGNGNTKYSQNFQGRLTITRDTSASTVNMELSSLRSEDTAVYYCAGGYHDPLTSYNYNWFDPWGQGTMVTVSSGGGGSGGGGSGGGGSSELTQDPAVSVALGQTVRITCQGDSLRSYYTNWFQQKPGQAPLLVVYAKNKRPSGIPDRFSGSSSGNTASLTITGAQAEDEADYYCHSRDSSGNHVLFGGGTKLTVLG
# B10: I012A06 (scFv)
# scFv: QVQLQESGPGVVKPSQTLSLTCTVSGVSISSDSYYWSWIRQPAGKGPEWIGRIYPTGSTNYNPSLKSRVTISVDTSKNQFSLQLTSVTAADTAVYYCARGRWDYDLLTGEHLGYYFDYWGRGTLVTVSSGGGGSGGGGSGGGGSALSSELTQDPAVSVALGQTVRITCQGDTLRNYYASWYQQKPGQAPVLVIHSRNNRPSGIPDRFSGSSSGTTASLTITGSQAEDEADYYCNSRDSSGNVIFGGGTKLTVLG
# B11: I037E07 (scFv)
# scFv: QVQLVQSGAEVKKPGASVKVSCKASGYTFTNYGITWVRQAPGQGLEWMGWISAYNGNRNYAQKLQGRVTMTTDTSTSTAYMELRSLRSDDTAVYYCVRDGIDILLVPAALMDVWGRGTMVTVSSGGGGSGGGGSGGGGSQSVLTQPASVSGSPGQSITISCTGTSSDVGGYNYVSWYQQHPGKAPKLMIYEGSKRPSGVSNRFSGSKSGNTASLTISGLQAEDEADYYCSSYTTRSTRVFGGGTKLTVLG
# B12: I037E12 (scFv)
# scFv: B11 scFv with Q1E, R116K, M119L, S193N
# B13: I016F02 (scFv)
# scFv: GVQLVESGAEVKKPGASVKVSCRTSGYTFTSNSFSWVRQAPGQGLEWMGGIIPIFGTANYAQKLQGRVTITADELTRTVYMDLSSLRSEDTAVYYCATGMGDHYGMDVWGRGTLVTVSSGGGGSGGGGSGGGGSQSVLTQPASVSGSPGQSITISCTGTSSDVGGYNYVSWYQQHPGKAPKLMIYEGSKRPSGVSNRFSGSKSGNTASLTISGLQAEDEADYYCSSYTTRSTRVFGGGTKLTVLG
# B14: I022D01 (scFv)
# scFv: EVNLRESGGGVDQPGRSLRLSCAASGFTFSSYGMHWVRQAPGKGLEWVAVISYDGSNKYYADSVKGRFTISRDNSKNTLYLQMNSLRAEDTAVYYCAKDGYYDILTGYSYYGMDVWGQGPMVAVSSGGGGSGGGGSGGGGSSELTQDPAVSVALGQTVRITCQGDSLRSYYTNWFQQKPGQAPLLVVYAKNKRPSGIPDRFSGSSSGNTASLTITGAQAEDEADYYCNSRDSSGNHVVFGGGTKLTVLG
# B15: I050B11 (scFv)
# scFv: QVQLVQSGVEVKKPGASVKVSCKASGYTFSNHGISWVRQAPGQGLEWVGWISGHDDSTKYAQKFQGRVTMTADTSTSTAYIELRSLKSDDTAVYYCARPFYDTLTSYVFQYFDHWGQGTMVTVSSGGGGSGGGGSGGGGSALETTLTQSPDTLSLSPGERATLSCRASQSVTRGWVAWYQQKPGQAPRLLMYGTSRRATGVPDRFSGSESGTDFTLTISRLEPEDFAVYYCQQYATSPRTFGQGTRLEIKR
# B16: I051C04 (scFv)
# scFv: QVQLQQSGAEVKKPGSSVKVSCRTSGGTFSNYGLSWVRQAPGQGLEWMGGVIPISSTIKYGQKFQDRLTIAADDLTNTTFMELSSLRPEDTAVYYCARAATTSQKHNKYAYYFYGMDVWGQGTMVTVSSGGGGSGGGGSGGGGSAQSALTQPASVSGSPGQSITISCTGTSSDVGGYNYVSWYQQHPGKAPKLMIYEVSNRPSGVSNRFSGSKSGNTASLTISGLQAEDEADYYCSSYTSSSTLVFGGGTKVTVLG
# notes: also called 1051C04
# B17: I029F11 (scFv)
# scFv: QVQLVQSRAEVKRPGASVKVSCKASGYRFGSYGITWVRQAPGQGLEWMGWISTRYGDTKSAQKVEGRVTLTTDTSTSTAYMELRSLRSDDTAVYYCARDGSYDILTGYYIDNYMDVWGRGTLVTVSSGGGGSGGGGSGGGGSQSVLTQPPSASGTPGQRVTISCSGSSSNIGSNTVNWYQRLPGAAPQLLIYNNDQRPSGIPDRFSGSKSGTSGSLVISGLQSEDEADYYCASWDDSLNGRVFGGGTKLTVLG
# B18: I068C06 (scFv)
# scFv: EVQLVQSGAEVKKPGSSVKVSCKASGGTVSSRTISWVRQAPGQGLEWMGGSLPPSGAPIYAQKFQGRVAITADALTNTAFMELRSLKSDDTAVYYCARDQGRYLDLWGKGTLVTVSSGGGGSGGGGSGGGGSAQAVLTQPSSVSGAPGQRVTISCTGSRSNIGAGYDVHWYQQLPGTAPKLLIYGNSNRPSGVPDRFSGSKSGTSASLAITGLQADDEADYYCQSYDTSLRGLFGTGTKVTVLG
# notes: also called I0068C06; I0068CO6
# B19: I026C04-K (scFv)
# scFv: QVQLVQSGAEVKKPGSSVKVSCRASGGSFNKHAISWVRQAPGRGLEWMGGILPMYGTANYAQKFQGRVTITADKLTNTVYMDLSRLRYEDTAVYYCARELGLSIVGATTGALDMWGKGTLVTVSSGGGGSGGGGSGGGGSAQSVLTQPPSVSAAPGQKVTISCSGSSSNIGNNYVSWYQQIPGTAPKLLIYENNKRPSGIPDRFSGSKSGASATLDITGLQTGDEADYYCGTWHSSQVVFGGGTKLTVLG
# Molecular target: T2, biotinylated B Lymphocyte Stimulator, soluble form (human, UniProt Q9Y275 134-285, biotinylated with NHS-biotin, molar ratio 20:1 biotin:protein)
# T2 construct: also called bio-B Lymphocyte Stimulator; free B Lymphocyte Stimulator
# Assay: phage scFv, receptor binding inhibition on IM9 cells
# Experimental: Fifty-five μl of each appropriate phage supernatant was added to each well and the final volume in each well was 65 μl. Plates were then incubated at room temperature for 30 minutes.
# Plates were washed three times in PBST and three times in PBS, tapped dry and 50 μl of streptavidin-Delfia (Wallac) was added to each well at 1:1000 dilution in the Manufacturer's assay buffer. The plates were then incubated at room temperature for 1 hour and washed six times in Delfia wash solution (Wallac). After tapping the plates dry, 100 μl per well of Delfia enhancement solution (Wallac) was added. The plates were gently tapped to encourage micelle formation, incubated at room temperature for 10 minutes, and fluorescence read on a Wallac 1420 workstation at […].
row,binding result,Binder
1,binds,B1
2,binds,B2
3,binds,B3
4,binds,B4
5,binds,B5
6,binds,B6
7,binds,B7
8,binds,B8
9,binds,B9
10,binds,B10
11,binds,B11
12,binds,B12
13,binds,B13
14,binds,B14
15,binds,B15
16,binds,B16
17,binds,B17

# Molecular target: T1, TNF-beta
# Assay: phage ELISA
row,binding result,Binder
1,no binding,B18
2,no binding,B19

# Molecular target: T3, TRAIL (human, UniProt P50591 114-281)
# T3 construct: also called TNF-related apoptosis inducing ligand
# Assay: phage ELISA
# T3 sequence (P50591 114-281 limits assumed): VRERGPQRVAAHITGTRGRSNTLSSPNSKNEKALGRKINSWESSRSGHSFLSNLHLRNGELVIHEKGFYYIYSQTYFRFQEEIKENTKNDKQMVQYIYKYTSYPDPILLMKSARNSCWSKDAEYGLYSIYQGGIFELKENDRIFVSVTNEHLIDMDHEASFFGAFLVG
row,binding result,Binder
1,no binding,B18
2,no binding,B19

# Molecular target: LIGHT (human, UniProt O43557 74-240, limits assumed)
# Assay: phage ELISA
# LIGHT, sequence (O43557 74-240 limits assumed): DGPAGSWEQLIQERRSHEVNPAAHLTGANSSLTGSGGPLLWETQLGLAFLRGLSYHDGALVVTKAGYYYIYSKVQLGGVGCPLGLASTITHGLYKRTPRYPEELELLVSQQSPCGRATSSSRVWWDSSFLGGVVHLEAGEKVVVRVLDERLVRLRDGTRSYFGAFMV
row,binding result,Binder
1,no binding,B18
2,no binding,B19

# Molecular target: T4, TNF-alpha (human, UniProt P01375 77-233)
# T4 construct: also called TNFα; TNF-α
# Assay: phage ELISA
# T4 sequence (P01375 77-233 limits assumed): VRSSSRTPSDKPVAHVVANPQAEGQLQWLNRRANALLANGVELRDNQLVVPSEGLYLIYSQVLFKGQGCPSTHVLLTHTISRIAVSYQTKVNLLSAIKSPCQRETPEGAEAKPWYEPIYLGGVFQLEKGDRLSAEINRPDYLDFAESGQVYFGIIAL
row,binding result,Binder
1,no binding,B18
2,no binding,B19
